Measurements from article PMC9741607, “Cryo-electron tomography reveals structural insights into the membrane remodeling mode of dynamin-like EHD filaments” (Nature Communications, 2022).

Target: the molecule itself
Experiment: cryo-EM structure; cryo-electron tomography and subtomogram averaging of EHD4^ΔN filaments on membrane tubes (liposomes of 50% Folch extract, 40% phosphatidylethanolamine, 10% cholesterol) with AMPPNP; pseudo-atomic model by rigid-body and flexible fitting

B1: mouse EHD4 (residues 22-541, EHD4^ΔN) (domain or fragment, UniProt Q9EQP2 22-541, looked up)
chain: QTVTGGLRSLYQRKVLPLEEAYRFHEFHSPALEDADFENKPMILLVGQYSTGKTTFIRYLLEQDFPGMRIGPEPTTDSFIAVMYGETEGSTPGNALVVDPKKPFRKLSRFGNAFLNRFMCSQLPNQVLKSISIIDSPGILSGEKQRISRGYDFCQVLQWFAERVDRIILLFDAHKLDISDEFSEAIKAFRGQDDKIRVVLNKADQVDTQQLMRVYGALMWSLGKVINTPEVLRVYIGSFWAQPLQNTDNRRLFEAEAQDLFRDIQSLPQKAAVRKLNDLIKRARLAKVHAYIISYLKKEMPNMFGKENKKRELIYRLPEIYVQLQREYQISAGDFPEVKAMQEQLENYDFTKFHSLKPKLIEAVDNMLTNKISSLMGLISQEEMNMPTQMVQGGAFDGTTEGPFNQGYGEGAKEGADEEEWVVAKDKPVYDELFYTLSPINGKISGVNAKKEMVTSKLPNSVLGKIWKLADCDCDGMLDEEEFALAKHLIKIKLDGYELPNSLPPHLVPPSHRKSLPKAD
notes: Eps15-homology domain containing protein 4 (EHD4), mouse, amino acids 22-541; N-terminal residues deleted; The fitted model covers residues 22-535; The His6 tag was removed with PreScission protease; also called N-terminal deletion construct of mouse EHD4; EHD4/Pincher; source: E. coli BL21(DE3)-Rosetta2, purified (NiNTA, Superdex 200); not shown: His6, N-terminal, cleaved
Does B1 bind?
Result: binds
